Molecular target: glyceraldehyde-3-phosphate dehydrogenase (GAPDH) (human) (UniProt P04406)
Assay: mass photometry; recombinant GAPDH without RNA; 100 nM GAPDH in binding buffer (10 mM Tris-HCl pH 8.0, 50 mM KCl, 2 mM DTT, 0.5 mM EDTA), 25 min at room temperature, diluted 1:10 for measurement; TwoMP mass photometer; monomer and tetramer peaks seen

glyceraldehyde-3-phosphate dehydrogenase (GAPDH), P04406 1-335 (enzyme; other documents disagree on this pair), sequence (P04406 whole entry): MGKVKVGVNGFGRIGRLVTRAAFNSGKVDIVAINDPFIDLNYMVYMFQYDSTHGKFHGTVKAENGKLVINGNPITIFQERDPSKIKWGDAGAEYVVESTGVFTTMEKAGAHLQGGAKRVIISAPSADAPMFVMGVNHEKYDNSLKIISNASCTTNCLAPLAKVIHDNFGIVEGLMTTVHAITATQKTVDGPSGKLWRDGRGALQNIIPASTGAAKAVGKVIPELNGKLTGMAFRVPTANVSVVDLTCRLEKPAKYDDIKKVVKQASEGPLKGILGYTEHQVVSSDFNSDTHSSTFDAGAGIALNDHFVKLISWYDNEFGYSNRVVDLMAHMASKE

stoichiometry N: 4
Substance: glyceraldehyde-3-phosphate dehydrogenase (GAPDH), P04406 1-335 (enzyme; other documents disagree on this pair)

Source: article PMC12582121
